Legend:
Conditions in all cases: 1 mM MgCl2, 0.5 mM EDTA, 0.5 mM DTT, 50 mM NaCl, 10 mM Tris-HCl pH 7.5, 0.05 mg/ml poly(dI-dC), 10 ul, room temperature 30 min; footprinting in same buffer …
[1] = biological target: T1, His-AphA (Vibrio parahaemolyticus RIMD 2210633) (UniProt Q87L53); assay: EMSA
T1 sequence: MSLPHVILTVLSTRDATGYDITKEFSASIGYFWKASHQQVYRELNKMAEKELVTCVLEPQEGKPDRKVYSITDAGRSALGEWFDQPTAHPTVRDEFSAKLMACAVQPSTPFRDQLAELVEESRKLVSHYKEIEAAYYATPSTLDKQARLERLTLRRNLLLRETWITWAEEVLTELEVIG

[2] = biological target: T1, His-AphA (Vibrio parahaemolyticus RIMD 2210633); assay: competition
[3] = biological target: T1, His-AphA (Vibrio parahaemolyticus RIMD 2210633); assay: DNase I footprinting

Sequence	binding [1]	binding [2]	binding [3]
AACTTCCAACCACATAATTGCGCAGCAAATAACCAGACATTTACACTACAAAAAACCCATAAAATACCAACAAATTAGAATTATTAACTACAAAATAACTCTATTGAGTATTATGTTAGTTTTTCAGGGTAATTTTGTCCTAGTATTCCACTTCATGCTTATTATTTATATACTACTTGCCTGCTGAGAGCTCATAAATCCAATCATACCTGCTCCAGCC (double strand) [aphA promoter fragment]	binds	binds	binds
AGTGGGTTGAAAGTCACATCCTTTTGCGGAAAATTCTTGGGAGCGCTGCCAAATTTTCGAAAGTTTACAGCAAAACTTATCAATAATAATGACATTACTGTCTATAAATTATCCATCAGATGTTGACCTTGTGCATATGCACCATTACACTCATCACTGCTTAAAGCAATTATTAAAATAATCAATTAGGGGGTTACCCCCAACAACAACTCAAATGGCAAGGAAAATGGATATGGACTCAATTGCAAAGAGACCTAGAACTAGGC (double strand) [opaR promoter fragment (footprinting)]			binds
AGTGGTTGCTTATGAATCAATCCCAGGAAAAGGCGAGAACAGCGAACCTTCAACTCGTTAACATTTTATTTTCATTTACATTTTGACTAACTCAATTGTTAATAAATTACCTAAATTGCATTTTGAAATTGCAGAATGCAATTAAGTTTTGTTTTTTGCAAAAATTTATATAGGCAATATCAGTTTATATGAGATCTTGTGCCCAAAAATAAAGCTTTGAAAATTGGCATGATTAATGCATAATACTTCTCGACC (double strand) [qrr2 promoter fragment]	no binding		
CGACGCATTATTAACCAGCACTTTCGCAAATTGCATTTGCAAAATGCAATAGCATGCAAATATGCCACTTGTTACATTGCTACTAATCACTTTCTCAGCAAAAAACCAACTACTACTTTATGATTATCCATTAGCTTTCATATTTTTACCCTATACTGCTAATTAATGAGGAAAAATACCTCAGTAAATGGATTTCACGGTT (double strand) [qrr4 promoter fragment]	binds		binds
GGATAAGTTCAAATTGGATCCAGCCTTAGCAGGCTCGGTTATTCTAACGACAGTGACAGATGTGGTTGGTTTTTTCGCCTTTTTGGGAACGGCGAGTTTAGTCATGCTCTAAAAAGTCCACTGTTTATTAATCAATCATTAGCATAATAGAGACAAATTGCATAACGCACTTGCAAATTGCAAAAACATTCAAAGTTTAAGCAACGTATGTCACAGAAACCAC (double strand) [qrr3 promoter fragment]	no binding		
